Data from the supplement of paper PMC10126150.
± gives the standard deviation of the averaged measurements.

Each sequence was assayed on ATP (assay: switch fluorescence ratio, 500 uM ATP over buffer (Cy3 cluster intensity, sum of 5 cycles each) (fold (ratio)); higher = stronger signal-on switching upon ATP binding; sequences stand for … in TCGTCGGCAGCGTCAGATGTGTATAAGAGACAGTTTTTTTTTTTTTTTTTTTTTTTTT…TC). Conditions: aptamer strand: ATP DNA aptamer (quencher-CACCTGGGGGAGTATTGCGGAGGAAGG + anchor), 100 nM annealed; ATP concentration: 500 uM.
In short: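 Clusters with intensities outside 100-1000 RFU were excluded. The remaining Cy3-labelled switching-strand clusters on a modified Illumina MiSeq flow-cell had been annealed to 100 nM quencher-labelled ATP aptamer and imaged in selection buffer, then after 15 min with 500 uM ATP at 22 °C, for five cycles separated by NaOH stripping and re-annealing. The fluorescence ratio, averaged per switch-domain sequence, is each cluster's summed target-cycle Cy3 intensity over its summed buffer-cycle Cy3 intensity.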
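Also: ATP exposure 15 min at 22 °C before imaging.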

Sequence | switch fluorescence ratio
GCAGGTGGTG | 1.08 ± 0.062
GCAGTAAAAC | 1.694 ± 0.013
GCAGTATACC | 1.15 ± 0.019
GCAGTCACAG | 1.03 ± 0.029
GCAGTGAGGG | 0.991 ± 0.028
GCAGTGGGGA | 1 ± 0.031
GCAGTGTACG | 0.997 ± 0.0087
GCAGTTAGCC | 1.01 ± 0.034
GCAGTTGGGA | 1.02 ± 0.011
GCAGTTTTAG | 0.999 ± 0.027
GCATAATGAT | 1 ± 0.022
GCATAATGGG | 1.008 ± 0.0057
GCATAGGGAA | 1 ± 0.015
GCATAGGGAT | 0.988 ± 0.022
GCATATTGGG | 0.9866 ± 0.0042
GCATCAAGTG | 0.988 ± 0.034
GCATCACGAG | 1.08 ± 0.03
GCATCAGGGA | 1.02 ± 0.035
GCATGAAGCA | 1 ± 0.017
GCATGAATCT | 1.014 ± 0.0084
GCATGACTTT | 1.06 ± 0.028
GCATGAGGTG | 1.08 ± 0.021
GCATGCAGGG | 1.01 ± 0.045
GCATGCGCTC | 1.05 ± 0.052
GCATGGGGCC | 1 ± 0.011

Sequence | switch fluorescence ratio
GCATGGGTGG | 1 ± 0.023
GCATGTACTC | 3.36 ± 0.63
GCATTAAAGG | 0.981 ± 0.04
GCATTATCCA | 1.01 ± 0.031
GCATTGGGGT | 0.994 ± 0.012
GCATTGGTCA | 1.027 ± 0.0076
GCATTGTCAA | 0.992 ± 0.07
GCATTGTGTT | 0.991 ± 0.052
GCATTTGGGA | 0.99 ± 0.012
GCATTTGGTT | 1.01 ± 0.012
GCATTTTACA | 1 ± 0.013
GCATTTTATA | 1.02 ± 0.012
GCATTTTTTT | 0.996 ± 0.032
GCCAAAGACA | 0.9573 ± 0.0053
GCCAAAGATT | 1 ± 0.029
GCCAATGGGC | 1 ± 0.051
GCCAATTGCA | 0.97965 ± 0.00047
GCCACACAAT | 1.022 ± 0.0014
GCCACAGCTG | 1 ± 0.013
GCCACGTCAA | 1.06 ± 0.067
GCCAGAGATA | 1.0422 ± 0.00051
GCCAGAGTG | 2 ± 0.44
GCCAGCCGAC | 1.2 ± 0.032
GCCAGGAAAA | 0.957 ± 0.053
GCCAGGCCGA | 0.979 ± 0.034

Sequence | switch fluorescence ratio
GCCAGGGCGC | 1.02 ± 0.018
GCCAGGGGGG | 1.01 ± 0.029
GCCAGTTTGT | 0.9807 ± 0.0052
GCCATAGCCT | 0.9953 ± 0.0084
GCCATAGGTC | 1.012 ± 0.0043
GCCATCAATA | 1.03 ± 0.023
GCCATCAGAG | 0.973 ± 0.0044
GCCATCGGGG | 1.03 ± 0.012
GCCATTGTGG | 0.99 ± 0.019
GCCATTTTGG | 0.993 ± 0.013
GCCCAATATC | 2.68 ± 0.053
GCCCAATTTT | 0.998 ± 0.034
GCCCAGACGG | 1.31 ± 0.41
GCCCCACCTT | 1.08 ± 0.021
GCCCCCAGCG | 4.61 ± 0.65
GCCCCGTTTG | 1.0184 ± 0.00021
GCCCGACTCT | 1.01 ± 0.041
GCCCGGGATT | 1 ± 0.012
GCCCTAAGGC | 0.979 ± 0.054
GCCCTCCAGA | 1.14 ± 0.13
GCCCTGGGTC | 1.02 ± 0.06
GCCCTTGTAC | 1.2 ± 0.094
GCCGAATCTG | 1 ± 0.02
GCCGATGCCT | 1.02 ± 0.015
GCCGCCCTGG | 1.056 ± 0.0076

Sequence | switch fluorescence ratio
GCCGCCGTAA | 1.3 ± 0.079
GCCGCGAAGG | 1.02 ± 0.018
GCCGCGGGTC | 1.08 ± 0.048
GCCGGAAGAA | 1.05 ± 0.037
GCCGGACATT | 0.998 ± 0.02
GCCGGAGCGG | 1.38 ± 0.062
GCCGGCAAGT | 1.02 ± 0.016
GCCGGCCGGA | 1.02 ± 0.02
GCCGGGAGTA | 1.004 ± 0.0031
GCCGGGCTTG | 1.02 ± 0.017
GCCGGGGACG | 1.01 ± 0.011
GCCGGGGTGA | 1.04 ± 0.043
GCCGTAGTGC | 1.01 ± 0.03
GCCGTATGCT | 0.9859 ± 0.0092
GCCGTCTCCC | 1.03 ± 0.047
GCCGTGGCGG | 0.9753 ± 0.0041
GCCGTTGCAT | 1.022 ± 0.0019
GCCTAATAGT | 0.98 ± 0.027
GCCTAATGTT | 0.957 ± 0.022
GCCTACTGTT | 0.9855 ± 0.0094
GCCTAGGGTT | 1 ± 0.023
GCCTATAGTC | 0.991 ± 0.03
GCCTGAGAGC | 0.9754 ± 0.0021
GCCTGGGGGA | 1.07 ± 0.12
GCCTGGTTGG | 0.995 ± 0.015
